What all share (experiment): IEDB peptide-MHC binding, purified MHC/competitive/radioactivity; filed as Kd, often an IC50 or EC50 that approximates it; ≥ and ≤ were set here for values at or beyond the usual limits of such assays
Test [1] addresses HLA-A*11:01.
Test [2] has as its target HLA-A*33:01.
The target in test [3] is HLA-A*68:01.
Test [4] addresses HLA-A*03:01.
Test [5] deals with HLA-A*31:01.
The target in test [6] is HLA-A*02:03.
The target of test [7] is HLA-A*02:06.
[8] abbreviates: source organism: Dengue virus 1 Nauru/West Pac/1974.
The mark [9] stands for this setting: source organism: Vaccinia virus WR.
The mark [10] stands for this setting: source organism: Lymphocytic choriomeningitis virus (strain Armstrong).
The mark [11] stands for this setting: source organism: Dengue virus 1 Singapore/S275/1990.
The mark [12] stands for this setting: source organism: Dengue virus 3 Martinique/1243/1999.
[13] abbreviates: source organism: Dengue virus 1 Brazil/97-11/1997.
Where [14] appears, read: source organism: Vaccinia virus Copenhagen.
[15] abbreviates: source organism: Dengue virus 4 Philippines/H241/1956.
Where [16] appears, read: source organism: SARS coronavirus Tor2.
Setting [17] is: source organism: Dengue virus 2 Jamaica/1409/1983.
Setting [18] is: source organism: Dengue virus 2 16681-PDK53.
Setting [19] is: source organism: Lassa virus Josiah.
Setting [20] is: source organism: Mammarenavirus guanaritoense.
[21] abbreviates: source organism: Dengue virus 3 Sri Lanka/1266/2000.
[22] abbreviates: source organism: Dengue virus 2 Peru/IQT2913/1996.

Drawing on the Immune Epitope Database (IEDB), this text covers Kd for 73 sequences.

The term pKd denotes −log10 of the Kd, conventionally taken in molar units.

pKd: −log10 of the molar value. Where only a bound is given, the exact number is not on record here.

For TTIITPMMR, the pKd is 6.67 in test [1] (setting [8]), 7.28 in test [2] (setting [8]) and 8.38 in test [3] (setting [8]).
For FIDVHIPKFK, the pKd in test [4] (setting [9]) is 5.97; in test [1] (setting [9]), 6.75; in test [5] (setting [9]), 5.57; in test [2] (setting [9]), 4.88; in test [3] (setting [9]), 6.97.
In the case of ILKINSVKYY, the pKd is 4.76 in test [4] (setting [9]); 4.87 in test [1] (setting [9]); 5.31 in test [5] (setting [9]); 4.95 in test [2] (setting [9]); 5.85 in test [3] (setting [9]).
On to GICSCGAFK, for which the pKd in test [1] (setting [10]) is 7.26.
Turning to VQTAPGTFK, the pKd in test [1] (setting [11]) is 6.89.
For the sequence YQSFLFWFLK, the pKd in test [4] (setting [9]) is 7.69; in test [1] (setting [9]), 9.15; in test [5] (setting [9]), 7.74; in test [2] (setting [9]), 5.40; in test [3] (setting [9]), 8.08.
With NTPECPSASR, the pKd in test [3] (setting [12]) is 8.32.
For the sequence LLILCTSQI, the pKd in test [6] (setting [13]) was 8.06.
ALDEKWNEFK: the pKd in test [4] (setting [9]) was 6.72; in test [1] (setting [9]) it was 7.01; in test [5] (setting [9]), 5.14; in test [2] (setting [9]), no more than 4.15; in test [3] (setting [9]), 5.01.
Take ILHVDNHIGI: the pKd in test [6] (source organism: Homo sapiens) was 7.95.
Turning to STSPTRTWK, the pKd was 8.17 in test [4] (setting [14]); 9.10 in test [1] (setting [14]); 7.44 in test [5] (setting [14]); 5.19 in test [2] (setting [14]); 8.23 in test [3] (setting [14]).
With QMWSLMYFHR, the pKd in test [5] (setting [12]) was 8.85; in test [2] (setting [12]), 8.38.
For EVGAIALDFK, in test [3] (setting [13]), the pKd was 7.81.
As to AVSTANIFR, the pKd in test [1] (setting [15]) is 7.04; in test [3] (setting [15]), 7.53.
With TMLFTMLRK, the pKd in test [4] (setting [16]) was 8.13; in test [1] (setting [16]) it was 7.70; in test [5] (setting [16]), 6.05; in test [2] (setting [16]), 4.88; in test [3] (setting [16]) it was 5.80.
LSIVVDINK: the pKd is 5.29 in test [4] (setting [9]); 7.62 in test [1] (setting [9]); 5.38 in test [5] (setting [9]); no more than 4.11 in test [2] (setting [9]); 7.82 in test [3] (setting [9]).
The like results for LVFNSISAR were, in that order, 8.37, 7.57, 8.60, 5.98 and 6.84.
Regarding SADASTFLK, the pKd in test [4] (setting [16]) is 7.79; in test [1] (setting [16]), 8.53; in test [5] (setting [16]) it was 7.00; in test [2] (setting [16]), 5.59; in test [3] (setting [16]) it was 7.92.
For the sequence YLWEVKKQR, in test [2] (setting [17]), the pKd is 7.18.
Take FTTNIWLKLK: in test [3] (setting [18]), the negative-log Kd (pKd) was 7.90.
TLCAIILGGL: in test [6] (setting [15]), the pKd is 8.43.
On to PSTDVNKQNK, for which the pKd in test [4] (setting [9]) was 5.90; in test [1] (setting [9]), 5.44; in test [5] (setting [9]) it was 5.32; in test [2] (setting [9]) it was no more than 4.15; in test [3] (setting [9]), no more than 4.57.
As to RLASAILNA, the pKd in test [6] (setting [15]) is 7.64.
On to CAMPYNILDR, for which the pKd was 5.14 in test [4] (setting [9]); 6.73 in test [1] (setting [9]); 6.52 in test [5] (setting [9]); 6.19 in test [2] (setting [9]); 8.06 in test [3] (setting [9]).
Consider YALINLVQY, for which the pKd in test [4] (setting [9]) was no more than 4.11; in test [1] (setting [9]), no more than 4.11; in test [5] (setting [9]), no more than 4.69; in test [2] (setting [9]), no more than 4.11; in test [3] (setting [9]), no more than 4.29.
For the sequence ELGKKKTPR, the pKd in test [2] (setting [17]) is 6.94.
On to KLKHRDGFTK, for which the pKd in test [4] (setting [14]) is 7.43; in test [1] (setting [14]) it was 6.88; in test [5] (setting [14]), 6.14; in test [2] (setting [14]), no more than 4.54; in test [3] (setting [14]), no more than 4.41.
On to HIVGKSCPK, for which the negative-log Kd (pKd) is 4.96 in test [4] (setting [19]); 4.82 in test [1] (setting [19]); no more than 4.35 in test [5] (setting [19]); no more than 4.62 in test [2] (setting [19]); no more than 4.57 in test [3] (setting [19]).
With GSYIALDSGR, the pKd in test [4] (setting [19]) was 5.37; in test [1] (setting [19]) it was 6.82; in test [5] (setting [19]), 7.11; in test [2] (setting [19]), 5.94; in test [3] (setting [19]) it was 6.56.
For IMAYVNQAHH, the pKd in test [4] (setting [20]) is 5.40; in test [5] (setting [20]) it was 5.95; in test [2] (setting [20]), 5.41; in test [3] (setting [20]), 7.01.
As for LALSLTFIR, the pKd in test [5] (setting [15]) is 7.01; in test [2] (setting [15]) it was 8.19.
Turning to MTLMKGASKR, the pKd is 7.11 in test [5] (setting [15]), 7.17 in test [2] (setting [15]) and 7.02 in test [3] (setting [15]).
For the sequence LQMEDKAWL, in test [7] (setting [17]), the pKd was 7.49.
Regarding VTNPAVLRK, the values for the pKd in test [4] (setting [13]) and in test [1] (setting [13]) were 8.37 and 7.78, respectively.
As to CTGSFKLEK, the pKd in test [1] (setting [13]) was 7.40.
Take TMWHVTRGSV: in test [6] (setting [15]), the negative logarithm of the Kd (pKd) was 7.61.
For the sequence IMQRGLFGK, the pKd was 7.07 in test [4] (setting [15]) and 6.49 in test [1] (setting [15]).
As to IVSSVNMVSR, the results for the pKd in test [5] (setting [21]), in test [2] (setting [21]) and in test [3] (setting [21]) were 7.08, 6.46 and 8.04, respectively.
With ILKEPVHGV, in test [6] (source organism: Human immunodeficiency virus type 1 BH10), the negative logarithm of the Kd (pKd) is 8.20.
As to KNGAIKVLR, the pKd in test [5] (setting [13]) was no more than 4.29.
As to NIHTAITQVR, the pKd in test [3] (setting [15]) is 6.78.
Consider ATTIITPMMR, for which the pKd in test [1] (setting [8]) was 6.79; in test [5] (setting [8]) it was no more than 4.15; in test [3] (setting [8]) it was 6.41.
Consider AVVLMGLDK, for which, in test [1] (setting [12]), the pKd is 5.61.
Take LTIMDLHPGA: the pKd in test [7] (setting [17]) is 6.98.
For the sequence SLVMLLVHYA, the pKd in test [6] (setting [15]) was 6.19; in test [7] (setting [15]) it was 6.37.
For the sequence RSCSFKVGHH, the negative-log Kd (pKd) was 4.94 in test [4] (setting [20]), 6.32 in test [5] (setting [20]), no more than 4.15 in test [2] (setting [20]) and no more than 4.44 in test [3] (setting [20]).
Regarding NMTSRMLLNR, the figures for the pKd in test [5] (setting [13]), in test [2] (setting [13]) and in test [3] (setting [13]) were 4.92, 7.13 and 6.33, respectively.
On to SLAAIANQA, for which the negative logarithm of the Kd (pKd) in test [6] (setting [12]) is 7.26.
Regarding MGANFRAGR, the pKd in test [3] (setting [15]) was 7.33.
For the sequence VIYDSKFEK, the pKd is 7.19 in test [4] (setting [12]) and 7.38 in test [1] (setting [12]).
Turning to IFTLTVAWR, the pKd in test [5] (setting [21]) was 6.79; in test [2] (setting [21]) it was 8.23.
Take QMWQLMYFHR: the pKd is no more than 4.40 in test [5] (setting [13]) and 9.40 in test [2] (setting [13]).
As to LLKTALLIV, in test [6] (setting [12]), the pKd is 7.97.
With DVPSPAAAQK, the pKd in test [3] (setting [15]) was 6.72.
On to ETTKHAVSR, for which the pKd in test [2] (setting [13]) was 7.97; in test [3] (setting [13]), 7.99.
KQLGQIMLL: the pKd in test [7] (setting [13]) is 8.24.
As to VSSVNTTSK, in test [1] (setting [15]), the pKd was 5.86.
In the case of LQMENKAWL, the pKd in test [7] (setting [18]) was 7.64.
Regarding MSAAIKDSK, the pKd is 5.95 in test [1] (setting [13]) and 7.12 in test [3] (setting [13]).
Turning to DISEMGANFR, the pKd in test [2] (setting [13]) is 6.64; in test [3] (setting [13]), 7.89.
For HATMLDVDLR, the pKd in test [3] (setting [11]) is 7.04.
On to ATTFITPMLR, for which the pKd in test [1] (setting [22]) is 7.85; in test [5] (setting [22]), 7.31; in test [3] (setting [22]), 7.82.
TLMSIVSSLH: in test [2] (setting [10]), the negative logarithm of the Kd (pKd) was no more than 4.15.
For LLNRFTMAHR, in test [5] (setting [13]), the pKd was no more than 4.31.
Turning to LTMFLITENK, the pKd in test [4] (setting [8]) was 8.34; in test [1] (setting [8]) it was 7.52; in test [3] (setting [8]), 7.64.
As to TLWEGSPGK, the pKd in test [4] (setting [13]) is 6.48.
For GLAMGIMMLK, the results for the pKd in test [4] (setting [13]) and in test [1] (setting [13]) were 7.92 and 6.81, respectively.
Turning to ATLTEGVYR, the negative-log Kd (pKd) in test [5] (setting [15]) was 8.14.
Turning to LMYFHRRDLR, the pKd is 6.85 in test [4] (setting [17]), 9.25 in test [5] (setting [17]), 7.76 in test [2] (setting [17]) and 6.68 in test [3] (setting [17]).
Regarding YVASYLLAAL, the pKd in test [6] (source organism: Homo sapiens) was 8.98.
Regarding VSQLAKRFSK, the negative-log Kd (pKd) in test [1] (setting [8]) is 6.90.
For IMKDGRKLV, the pKd in test [6] (setting [12]) was 6.25.
Regarding LTALNDMGK, the pKd in test [1] (setting [17]) was 5.84; in test [3] (setting [17]), 6.28.
